One assay has as its target T1, human IL-10Rα on cells (human, UniProt Q13651 22-578).
T1 construct: Full-length entry with signal peptide; endogenous on PBMC and RPMI-8226 cells, transfected in EL-4 and CHO-K1 cells; also called IL-10R on RPMI-8226 cells; IL-10Rα on human PBMC, lymphocytes and monocytes
T1 sequence: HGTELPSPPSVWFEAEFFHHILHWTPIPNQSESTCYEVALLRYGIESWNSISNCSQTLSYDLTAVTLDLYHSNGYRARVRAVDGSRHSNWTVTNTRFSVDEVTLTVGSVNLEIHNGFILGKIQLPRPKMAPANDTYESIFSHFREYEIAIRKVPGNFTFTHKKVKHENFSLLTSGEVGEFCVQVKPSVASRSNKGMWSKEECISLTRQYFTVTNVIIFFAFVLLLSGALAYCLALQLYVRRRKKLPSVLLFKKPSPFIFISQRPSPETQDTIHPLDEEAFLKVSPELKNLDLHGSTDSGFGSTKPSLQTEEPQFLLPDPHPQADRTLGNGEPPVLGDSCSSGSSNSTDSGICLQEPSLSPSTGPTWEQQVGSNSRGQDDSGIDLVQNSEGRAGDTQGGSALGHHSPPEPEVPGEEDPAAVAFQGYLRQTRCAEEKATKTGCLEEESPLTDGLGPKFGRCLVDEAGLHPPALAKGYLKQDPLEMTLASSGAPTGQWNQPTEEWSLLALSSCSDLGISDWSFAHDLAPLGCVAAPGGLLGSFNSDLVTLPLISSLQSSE
Briefly: flow cytometry on RPMI-8226 cells; biotinylated human IL-10, streptavidin-FITC [B]. An excerpt:
RPMI-8226 cells were stained with human IL-10 biotin followed by anti-human IL-10Rα antibodies, and binding of antibodies was detected with anti-human IgG-PE or anti-rat IgG-PE. A) Filled histograms represent the maximum binding of the antibodies in the absence of IL-10, the open histograms are in the presence of human IL-10; B) Maximum IL-10 binding (closed histogram) is inhibited by anti-IL-10 (open histogram.) The shaded histogram represents binding of a negative control protein. Binding of IL-10 was detected with streptavidin-FITC.
IL-10 Blocking Assay: To determine if the anti-human IL-10Rα antibodies were blocked by binding of IL-10 to the receptor on the cell surface, a flow cytometric protocol was used. In the flow cytometric assay, RPMI-8226 cells were washed and resuspended in staining buffer and then incubated with biotinylated human IL-10 or a negative control protein (R&D Systems) for 30 minutes on ice. The anti-IL-10Rα antibodies were then added to the cells for an additional 30 minutes. […] After another wash, the cells were fixed with 1% paraformaldehyde and analyzed on a FACS Calibur. The fold reduction in antibody binding was determined using the geometric mean fluorescence intensity in the following formula: Fold reduction=geometric mean fluorescence intensity in the absence of IL-10/geometric mean fluorescence intensity binding in presence of IL-10.
Background: Flow cytometry measures light scatter and fluorescence of single cells or particles in a stream.

Assay [1] has as its target T2, cynomolgus macaque IL-10Rα extracellular domain fused to the Fc portion of human IgG1 (cynomolgus macaque).
T2 construct: The entry includes the signal peptide; also called cynomolgus IL-10Rα:hFc; cyIL-10Rα
Briefly: ELISA, coated cynomolgus IL-10Rα:hFc. From the text:
Titration of anti-IL-10Rα antibodies binding to coated chimp or cynomolgus IL-10Rα:hFc. Binding was detected with anti-human kappa-HRP, anti-mouse IgG-HRP, or anti-rat IgG-HRP. Different anti-rat-IgG HRP and anti-mouse IgG antibodies were used to generate the data in panels A and B. The nature of these secondary antibodies can affect the results and lead to different maximum binding (BMAX). The BMAX from these studies are described in Table 5.
IL-10Rα Specific Antibody Detection ELISA: Antibody titers, specificity, and production by hybridomas were determined by ELISA. In brief, 96 well flat bottom Maxisorb plates were coated with 50 μl of hIL-10Rα (R&D Systems, Minneapolis, Minn.) at 1 μg/ml in carbonate buffer (pH 9.4) overnight at 4° C. or at 37° C. for 1 hour. After washing three times with PBS/0.05% Tween 20, plates were blocked with Superblock blocking buffer in TBS (Pierce) at room temperature for 30 minutes. The serum, supernatant, or purified antibody was diluted in blocking buffer, added to the wells, and the plates were incubated for 1 hour at room temperature. The plates were washed 3 times with PBS/0.05% Tween 20 and peroxidase-conjugated goat anti-human IgG (Fcγ specific), anti-rat IgG, or anti-mouse IgG detection antibodies (Jackson Immunoresearch) were added at a dilution of 1:5000. Multiple lots of anti-rat and anti-mouse IgG antibodies were used in different assays. […] Following a 1 hour incubation at room temperature, the plates were washed and the TMB (Sigma) substrate was added and incubated at room temperature for 5 to 10 minutes. The reaction was stopped with H₂SO₄ (LabChem) and the optical density was measured at 450 nm by a microplate reader. A second ELISA protocol using soluble human, chimp and cynomolgus IL-10Rα:hFc recombinant proteins as the coating antigens was also employed. In this assay, binding of specific human IgG were detected with a peroxidase labeled sheep anti-human kappa antibody (The Binding Site, Birmingham, UK).
Background: An ELISA detects its analyte on a solid surface through an enzyme-linked reagent.

Assay [2] has as its target T3, cynomolgus macaque IL-10Rα on PBMC (cynomolgus macaque, UniProt Q13651 22-578 (human entry)).
T3 construct: Full-length entry cloned from cynomolgus T cells; endogenous on primary PBMC in the assays; also called IL-10Rα on the surface of cynomolgus lymphocytes and monocytes
T3 chain: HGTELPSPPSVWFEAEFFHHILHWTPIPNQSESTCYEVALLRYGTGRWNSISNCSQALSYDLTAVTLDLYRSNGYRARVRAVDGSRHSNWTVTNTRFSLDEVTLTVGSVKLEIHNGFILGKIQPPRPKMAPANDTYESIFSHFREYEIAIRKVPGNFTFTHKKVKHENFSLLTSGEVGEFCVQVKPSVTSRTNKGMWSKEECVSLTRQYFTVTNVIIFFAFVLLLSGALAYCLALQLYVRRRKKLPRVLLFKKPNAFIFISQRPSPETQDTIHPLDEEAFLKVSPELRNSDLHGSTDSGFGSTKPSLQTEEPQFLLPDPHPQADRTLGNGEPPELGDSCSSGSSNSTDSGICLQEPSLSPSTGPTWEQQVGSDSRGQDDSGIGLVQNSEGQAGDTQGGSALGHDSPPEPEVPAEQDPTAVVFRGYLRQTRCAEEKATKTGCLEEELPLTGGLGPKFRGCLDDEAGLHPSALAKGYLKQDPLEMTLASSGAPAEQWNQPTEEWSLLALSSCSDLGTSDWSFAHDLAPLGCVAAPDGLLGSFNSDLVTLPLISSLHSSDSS
Briefly: flow cytometry on cynomolgus PBMC.

The target of assay [3] is T4, mouse IL-10Rα on splenocytes (mouse, UniProt Q61727 17-575).
T4 construct: whole, on cells
T4 sequence (looked up): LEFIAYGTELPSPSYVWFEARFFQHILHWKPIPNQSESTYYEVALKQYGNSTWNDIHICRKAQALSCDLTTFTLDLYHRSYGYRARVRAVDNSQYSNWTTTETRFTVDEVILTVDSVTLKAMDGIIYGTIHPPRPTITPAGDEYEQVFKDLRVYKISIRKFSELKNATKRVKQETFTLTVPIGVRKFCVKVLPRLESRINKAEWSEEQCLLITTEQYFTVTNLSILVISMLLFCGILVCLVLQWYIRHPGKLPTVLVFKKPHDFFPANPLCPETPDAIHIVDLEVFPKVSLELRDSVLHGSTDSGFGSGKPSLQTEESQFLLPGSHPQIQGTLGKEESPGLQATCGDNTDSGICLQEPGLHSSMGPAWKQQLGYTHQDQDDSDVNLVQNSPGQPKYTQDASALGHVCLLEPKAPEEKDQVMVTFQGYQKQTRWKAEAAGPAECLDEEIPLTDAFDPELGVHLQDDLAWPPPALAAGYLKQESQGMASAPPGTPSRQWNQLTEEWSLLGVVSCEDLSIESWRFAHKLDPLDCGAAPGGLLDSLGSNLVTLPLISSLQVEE
Briefly: flow cytometry on splenocytes.

The target in another assay is T5, Ac-SIFSHFREYE-NH2 (human).
T5 peptide: Ac-SIFSHFREYE-NH2
Briefly: dot blot on PVDF or nitrocellulose membrane. On the procedure: (§1) Methods to detect antibody binding to peptides derived from the human IL-10Rα sequence: Multiple methods were employed to detect binding of anti-human IL-10Rα antibodies to peptides derived from the extracellular domain of human IL-10Rα that have been reported by Reineke, et al. (Reineke, et al., Protein Sci 7:951 (1998)) to be included in the IL-10 binding site of the receptor. The following amide synthesized peptides were tested: Ac-[…]-NH2, Ac-[…]-NH2, Ac-[…]-NH2, Ac-[…]-NH2, Ac-[…]-NH2 (SEQ ID NO. 81-85). In addition, the following biotinylated peptides were tested: Biotin-[…]-NH2, Biotin-[…]-NH2 (SEQ ID NO. 86-87). The amide peptides were synthesized by A&A Labs, LLC (San Diego, Calif.) and the biotinylated peptides were synthesized by GenScript (Piscataway, N.J.) both at >95% purity and reconstituted at 20 mg/ml in DMSO. In one assay design peptides were spotted at 5 μg/spot in PBS onto PVDF membranes or nitrocellulose membranes that had been prepared according to the manufacturer's instructions. The membranes were incubated with anti-IL-10Rα antibodies using standard Western blotting methods (e.g. Towbin, et al., Proc Natl Acad Sci 76:4350 (1979)). Native human IL-10Ra:hFc and heat denatured human IL-10Ra:hFc were also spotted at 1 μg/spot on the membranes as controls. Negative controls included an irrelevant peptide and isotype controls. […] None of the antibodies bound to the spotted denatured protein or to any of the peptides derived from the human IL-10Ra extracellular domain or the irrelevant peptide.

The next assay deals with T6, Ac-GNFTFTHKKV-NH2 (human).
T6 peptide: Ac-GNFTFTHKKV-NH2
Nature of the assay: dot blot on PVDF or nitrocellulose membrane. On the procedure: as §1

Assay [4] concerns the target T7, Biotin-SGSTLDLYHSNGYRARVRAVDG-NH2 (human, N-terminal biotin, C-terminal amide (-NH2)).
T7 peptide: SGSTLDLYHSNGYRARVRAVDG
Nature of the assay: dot blot on PVDF or nitrocellulose membrane. On the procedure: as §1

Another assay deals with T8, Ac-YHSNGYRARVRA-NH2 (human).
T8 peptide: Ac-YHSNGYRARVRA-NH2
Nature of the assay: dot blot on PVDF or nitrocellulose membrane. The protocol:
as §1

Assay [5] addresses T9, Biotin-SGSTYSIFSHFREYEIAIRKV-NH2 (human, N-terminal biotin, C-terminal amide (-NH2)).
T9 peptide: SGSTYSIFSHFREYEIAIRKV
Briefly: dot blot on PVDF or nitrocellulose membrane. The protocol:
as §1

For a further assay, the target named is T10, Ac-TVTNTRFSVD-NH2 (human).
T10 peptide: Ac-TVTNTRFSVD-NH2
Nature of the assay: dot blot on PVDF or nitrocellulose membrane. On the procedure:
as §1

For a further assay, the target named is T11, Ac-SVASRSNKGM-NH2 (human).
T11 peptide: Ac-SVASRSNKGM-NH2
Nature of the assay: dot blot on PVDF or nitrocellulose membrane. The protocol: as §1

B1: recombinant human IL-10 (ligand, UniProt P22301 19-178, looked up)
chain: SPGQGTQSENSCTHFPGNLPNMLRDLRDAFSRVKTFFQMKDQLDNLLLKESLLEDFKGYLGCQALSEMIQFYLEEVMPQAENQDPDIKAHVNSLGENLKTLRLRLRRCHRFLPCENKSKAVEQVKNAFNKLQEKGIYKAMSEFDIFINYIEAYMTMKIRN
notes: also called human IL-10 biotin
Regarding B1, the binding result with human IL-10Rα on cells is on record as “binds”.

B2: 136D29 (antibody, V domains shown)
VH: QVQLVQSGAEVKKPGASVKVSCKVSGFTLTELSMHWVRQAPGKGLEWMGGFDPDDGETIYAQKFQGRVSMTEDTSTDTAYMELSSLRSEDTAVYYCATGGYYGPVGMDVWGQGTTVTVSS
VL: DIQMTQSPSSLSASVGDRVTITCRASQGISIWLAWYQQKPEKAPKSLIYAASSLQSGVPSRFSGSGSGTDFTLTISSLQPEDFATYYCQQYNSYPLTFGGGTKVEIK
notes: Hybridoma antibody, human IgG4, kappa light chain #2 (the chain identified as correct); also called human anti-human IL-10Rα monoclonal antibody 136D29; 136D9 [sic]
With B2, in [1], the BMAX was 1.31 OD. Further, the binding result is “binds” in [2]; “no binding” in assay [3]; “no binding (tested: 5 µg/spot)” with Ac-SIFSHFREYE-NH2; “no binding (tested: 5 µg/spot)” in the assay with Ac-GNFTFTHKKV-NH2; “no binding (tested: 5 µg/spot)” in [4]; “no binding (tested: 5 µg/spot)” in the assay with Ac-YHSNGYRARVRA-NH2. The binding result (in [5]; with Ac-TVTNTRFSVD-NH2; with Ac-SVASRSNKGM-NH2) was “no binding (tested: 5 µg/spot)” in each case.
